# Test results reported in patent US11723968B2.
# Experiments:
# [1] = molecular target: Andes virus glycoprotein Gc, wild type (Andes virus (Andes orthohantavirus CHI-7913 isolate))
# [2] = molecular target: Andes virus glycoprotein Gc, wild type (Andes virus (Andes orthohantavirus CHI-7913 isolate)); remark: listed apart in the source
substance,measurement,setting,value
"Andes virus glycoprotein Gn, wild type",melting temperature (Tm) of the temperature-induced Gn/Gc dissociation,[1],37.7 ° C.
same,melting temperature (Tm) of (Gn/Gc)4 dissociation,[2],36.3 ° C.
